Assay results: patent US20220372542A1, “DETECTION OF ANALYTES BY PROTEIN SWITCHES” (ABBOTT DIABETES CARE INC., priority 2019, published 2022)

B1: GDH-2025: Warfarin protein switch, SEQ ID NO: 1; SEQ ID NO:11 with mutation C96F (protein)
chain: AMYPDLKGKVVAITGAASGLGKAMAIRFGKEQAKVVINYYSNKQDPNEVKEEVIKAGGEAVVVQGDVTKEEDVKNIVQTAIKEFGTLDIMINNAGLFNPVPSHEMPLKDWDKVIGTNLTGAFLGSREAIKYFVENDIKGNVINMSSVHEVIPWPLASHYTASKGGMKLMTKTLALEYAPKGIRVNNIGPGAINTTINAEKFADPKQKADVESMIPMGYIGEPEEIAAVAAWLASKEASYVTGITLFADGGMTLYPSFQAGRG
B2: GDH-2028: Warfarin protein switch, SEQ ID NO: 15; mutations C96F; L252V (protein)
chain: MYPDLKGKVVAITGAASGLGKAMAIRFGKEQAKVVINYYSNKQDPNEVKEEVIKAGGEAVVVQGDVTKEEDVKNIVQTAIKEFGTLDIMINNAGLFNPVPSHEMPLKDWDKVIGTNLTGAFLGSREAIKYFVENDIKGNVINMSSVHEVIPWPLASHYTASKGGMKLMTKTLALEYAPKGIRVNNIGPGAINTTINAEKFADPKQKADVESMIPMGYIGEPEEIAAVAAWLASKEASYVTGITLFADGGMTVYPSFQAGRG

Columns and labels:
[1] = Beaker stability (long-term stability) of protein switch sensors; format: physicochemical; conditions: Sensor in 30 mM glucose in 100 mM PBS at 33° C., after 1 day
Procedure: Beaker Stability. The beaker stability (long-term stability) of the sensor GDH-105 and the sensors comprising the protein switches GDH-2004, GDH-2007, GDH-2008, GDH-2009, GDH-2010, GDH-2011, GDH-2015, GDH-2018, GDH-2019, GDH-2005, GDH-2013, GDH-2016, and GDH-2024 described above were evaluated in 30 mM glucose in 100 mM PBS at 33° C. as shown in FIG. 8. After 4 days, each of the signals experienced a sensor drop (decreased stability for detecting glucose) at different rates, as shown in Table 10.
Beaker Stability. The beaker stability (long-term stability) of the GDH-105, GDH-2025, GDH-2026, GDH-2027, and GDH-2028 sensors were evaluated in 30 mM glucose in 100 mM PBS at 33° C. as shown in FIG. 11. After 1 day, each of the signals experience sensor drop (decreased stability for detecting glucose) of different rates, as provided in Table 12.

[2] = Warfarin inhibition of protein switch sensors in test beaker; format: biochemical; conditions: 100 mM PBS 33° C., 10 mM NAD+; for effect of increasing warfarin concentrations on sensor signal: 5 mM glucose, 10, 30, 80, 180, 300 uM warfarin, FIGS. 12A, 12B, 13; for sensor response to glucose addition: glucose 5 mM
Procedure: Warfarin Sensor. Experimental GDH-105 and GDH-2016 glucose-responsive active areas were prepared using a single-layer active area system. The GDH was obtained from Codexis, Redwood City, Calif. The active area was coated onto a carbon working electrode in a single layer composition (Table 8). Following deposition of the active area, the active area was cured for three days at RT.
Experimental procedure. Testing of the GDH-105 and GDH-2016 sensors was conducted by immersing the electrode in a 100 mM PBS buffer solution at 33° C. NAD^+ (5 mM) supplied to a test beaker containing PBS buffer followed by the addition of glucose (1 mM).
Evolved Warfarin sensors. GDH-105, GDH-2016, GDH-2025, GDH-2026, GDH-2027, and GDH-2028 glucose-responsive active areas were prepared using a single-layer active area system. The GDH was obtained from Codexis, Redwood City, Calif. The active area (0.33 mm^2) was coated onto a carbon working electrode in a single layer composition (Table 8). Following deposition of the active area, the active area was cured for three days at room temperature.
Experimental procedure. Testing of the GDH-105, GDH-2016, GDH-2025, GDH-2026, GDH-2027, and GDH-2028 sensors was conducted by immersing the electrode in a 100 mM PBS buffer solution at 33° C. NAD^+(10 mM) supplied to a test beaker containing PBS buffer followed by the addition of glucose (5 mM).

[3] = Beaker calibration: glucose sensitivity of protein switch sensors; format: biochemical; conditions: Sensor active area 0.33 mm^2 with PVP membrane; 100 mM PBS, room temperature, 1-30 mM glucose

| Molecule | Signal drop (1 day) [1] [%] | effect of increasing warfarin concentrations on sensor signal [2] | sensor response to glucose addition [2] | Sensitivity [3] [nA/mM] |
| --- | --- | --- | --- | --- |
| B1 | −58 | inhibition | showed response to glucose addition | 0.32 |
| B2 | −68 | inhibition | showed response to glucose addition | 0.09 |
